Source: US20240124586A1 (WUXI BIOLOGICS IRELAND, published 2024)
Each block holds one binder with its values, some of them ahead of it.

Columns and labels:
[1] = molecular target: T1, cynomolgus PD-1 on engineered 293F cells (W305-293F.cynoPro1.FL.pool) (cynomolgus); assay: FACS binding to cynomolgus PD-1 engineered cells
T1 construct: whole, on cells; also called cynomolgus PD-1 engineered cells
Experimental: (§1) 4.0-fold titrated Abs with 1% BSA DPBS from 40 μg/ml to 0.0001526 μg/ml were added to the cells. Plates were incubated at 4° C. for 1 hour. After wash, […] 1:150 diluted PE-labeled goat anti-human antibody (Jackson 109-115-098) was added to each well and the plates were incubated at 4° C. for 1 hour. The binding of the antibodies onto the cells was tested by flow cytometry and the mean fluorescence intensity (MFI) was analyzed by FlowJo.

[2] = molecular target: T2, hCTLA4.ECD.hFc (human); assay: dual-binding ELISA (hCTLA4.ECD.hFc coated, detected with hPD-1-ECD.Biotin), sample kept 4 d in human serum at 37 C
T2 construct: ECD fused to a human Fc; not biotinylated; also called Human CTLA-4: W316-hPro1.ECD.hFc (in house)
T2 sequence (P16410 36-161): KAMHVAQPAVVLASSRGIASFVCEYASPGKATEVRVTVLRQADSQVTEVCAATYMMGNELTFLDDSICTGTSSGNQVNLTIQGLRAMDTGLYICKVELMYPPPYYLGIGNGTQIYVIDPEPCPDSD
Experimental: (§2) The antibodies were incubated in freshly isolated human serum at 37° C. On indicated time points, an aliquot of serum treated sample was removed from the incubator and snap frozen in liquid nitrogen, and then stored at −80° C. until ready for a dual-binding ELISA test. The frozen samples were quickly thawed immediately prior to the stability test. Briefly, plates were pre-coated with 0.5 μg/mL of hCTLA4.ECD.hFc (in house) at 4° C. overnight. After 1-hour blocking, the testing antibodies were added to the plates at various concentrations. The plates were incubated at ambient temperature for 1 hour. Following the incubation, the plates were washed three times with 300 μL per well of PBS containing 0.5% (v/v) Tween 20. Then 0.1 μg/ml hPD-1-ECD.Biotin was added to plates and the mixture was incubated for 1 hour. After washing the plates three times, Streptavidin-HRP (Lifetechnologies, #SNN1004) (1:20000 diluted) was added and incubated on the plates for 1 hour at room temperature. After washing six times with 300 μL per well of PBS containing 0.5% (v/v) Tween 20, 100 μL tetramethylbenzidine (TMB) substrate is added for the detection per well. The reaction was stopped after approximately 5 minutes by addition of 100 μL per well of 2 M HCl. The absorbance of the wells was measured at 450 nm with a multiwall plate reader (SpectraMax® M5e). […]

[3] = molecular target: T2, hCTLA4.ECD.hFc; assay: dual-binding ELISA (hCTLA4.ECD.hFc coated, detected with hPD-1-ECD.Biotin), sample kept 0 d in human serum at 37 C
Experimental: as §2

[4] = molecular target: T3, cynomolgus CTLA-4 on engineered 293F cells (W316-293F.cynoPro1.F1.Pool) (cynomolgus); assay: FACS binding to cynomolgus CTLA-4 engineered cells
T3 construct: whole, on cells; also called cynomolgus CTLA-4 engineered cells
Experimental: as §1, with “4-fold” for “4.0-fold”, “0.00004” for “0.0001526”

[5] = molecular target: T2, hCTLA4.ECD.hFc; assay: dual-binding ELISA (hCTLA4.ECD.hFc coated, detected with hPD-1-ECD.Biotin), sample kept 1 d in human serum at 37 C
Experimental: as §2

[6] = molecular target: T4, ECD of human PD-1 (SPR analyte) (human, UniProt Q15116 25-170); assay: SPR (Biacore), antibody captured as ligand on an anti-human IgG Fc chip, PD-1 ECD as analyte
T4 construct: extracellular domain; the SPR method only says ECD of PD-1; also called W305-hPro1.ECD.His
T4 sequence (Q15116 25-170): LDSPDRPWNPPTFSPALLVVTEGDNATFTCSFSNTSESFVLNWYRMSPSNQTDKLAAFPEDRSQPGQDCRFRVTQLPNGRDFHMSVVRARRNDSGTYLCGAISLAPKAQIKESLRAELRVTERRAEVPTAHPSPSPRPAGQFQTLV
Experimental: (§3) SPR technology was used to measure the on-rate constant (ka) and off-rate constant (kd) of the antibodies to ECD of CTLA-4 or PD-1. The affinity constant (KD) was consequently determined.
(§4) Biacore T200, Series S Sensor Chip CM5, Amine Coupling Kit, and 10×HBS-EP were purchased from GE Healthcare. Goat anti-human IgG Fc antibody was purchased from Jackson ImmunoResearch Lab (catalog number 109-005-098). In immobilization step, the activation buffer was prepared by mixing 400 mM EDC and 100 mM NHS immediately prior to injection. The CM5 sensor chip was activated for 420 s with the activation buffer. 30 μg/mL of goat anti-human IgG Fcγ antibody in 10 mM NaAc (pH 4.5) was then injected to Fc1-Fc4 channels for 200 s at a flow rate of 5 μL/min. The chip was deactivated by 1 M ethanolamine-HCl (GE). Then the antibodies were captured on the chip. Briefly, 4 μg/mL antibodies in running buffer (HBS-EP+) was injected individually to Fc3 channel for 30 s at a flow rate of […]. […] Regeneration buffer (10 mM Glycine pH 1.5) was injected at 10 μL min for 30 s following every dissociation phase.

[7] = molecular target: T4, ECD of human PD-1 (SPR analyte); assay: SPR (Biacore T200), antibody captured by anti-human Fc, PD-1 ECD as analyte
Experimental: as §3, §4

[8] = molecular target: T2, hCTLA4.ECD.hFc; assay: dual-binding ELISA (hCTLA4.ECD.hFc coated, detected with hPD-1-ECD.Biotin), sample kept 7 d in human serum at 37 C
Experimental: as §2

[9] = molecular target: T2, hCTLA4.ECD.hFc; assay: dual-binding ELISA (hCTLA4.ECD.hFc coated, detected with hPD-1-ECD.Biotin), sample kept 14 d in human serum at 37 C
Experimental: as §2

- EC50 [1]: 4.71 nM
- Top(MFI) [1]: 66800 MFI
- EC50 [2]: 0.141 nM
- EC50 [3]: 0.14 nM
- EC50 [4]: 5.87 nM
- Top(MFI) [4]: 6650 MFI
- EC50 [5]: 0.147 nM
- koff [6]: 0.000675 s⁻¹
- kon [6]: 542000 M⁻¹ s⁻¹
- Kd [7]: 1.24 nM
- EC50 [8]: 0.145 nM
- EC50 [9]: 0.156 nM
B1: W3248-U6T1.G25R-1.uIgG4.SP, bispecific anti-PD-1 x CTLA-4 (bispecific antibody)
heavy: EVQLLESGGGLVQPGGSLRLSCAASGFTFSSHAMSWVRQAPGKGLEWVSTITGGGGSIYYADSVKGRFTISRDNSKNTLYLQMNSLRAEDTAVYYCAKNRAGEGYFDYWGQGTLVTVSSASTKGPSVFPLAPCSRSTSESTAALGCLVKDYFPEPVTVSWNSGALTSGVHTFPAVLQSSGLYSLSSVVTVPSSSLGTKTYTCNVDHKPSNTKVDKRVGGGGSGGGGSQVQLVESGGGVVQPGRSLRLSCAASGFTFSSYTMHWVRQAPGKGLEWVTFISYDGNNKYYADSVKGRFTISRDNSKNTLYLQMNSLRAEDTAIYYCARTGWLGPFDYWGQGTLVTVLEDLKNVFPPEVAVFEPSEAEISHTQKATLVCLATGFYPDHVELSWWVNGKEVHSGVCTDPQPLKEQPALQDSRYALSSRLRVSATFWQNPRNHFRCQVQFYGLSENDEWTQDRAKPVTQIVSAEAWGRYGPPCPPCPAPEFLGGPSVFLFPPKPKDTLMISRTPEVTCVVVDVSQEDPEVQFNWYVDGVEVHNAKTKPREEQFNSTYRVVSVLTVLHQDWLNGKEYKCKVSNKGLPSSIEKTISKAKGQPREPQVYTLPPSQEEMTKNQVSLTCLVKGFYPSDIAVEWESNGQPENNYKTTPPVLDSDGSFFLYSRLTVDKSRWQEGNVFSCSVMHEALHNHYTQKSLSLSLG
light 1: SYELTQPLSVSVALGQTARITCGGDNIGNKDVHWYQQKPGQAPVLVIYRDSNRPSGIPEGFSGSNSGNTATLTISRAQAGDEADYYCQVWDSIWVFGGGTKLTVLGQPKAAPSVTLFPPSSEELQANKATLVCLISDFYPGAVTVAWKADSSPVKAGVETTTPSKQSNNKYAASSYLSLTPEQWKSHKSYSCQVTHEGSTVEKTVAPTECS
light 2: not shown
notes: IgG4 (S228P); also called U6T1.G25R.IgG4

- EC50 [1]: 5.13 nM
- Top(MFI) [1]: 68100 MFI
- EC50 [2]: 0.0944 nM
- EC50 [3]: 0.092 nM
- EC50 [4]: 1.45 nM
- Top(MFI) [4]: 11200 MFI
- EC50 [5]: 0.0978 nM
- koff [6]: 0.000844 s⁻¹
- kon [6]: 642000 M⁻¹ s⁻¹
- Kd [7]: 1.32 nM
- EC50 [8]: 0.101 nM
- EC50 [9]: 0.0989 nM
B2: W3248-U6T5.G25-1.uIgG4.SP, bispecific anti-PD-1 x CTLA-4 (bispecific antibody)
heavy: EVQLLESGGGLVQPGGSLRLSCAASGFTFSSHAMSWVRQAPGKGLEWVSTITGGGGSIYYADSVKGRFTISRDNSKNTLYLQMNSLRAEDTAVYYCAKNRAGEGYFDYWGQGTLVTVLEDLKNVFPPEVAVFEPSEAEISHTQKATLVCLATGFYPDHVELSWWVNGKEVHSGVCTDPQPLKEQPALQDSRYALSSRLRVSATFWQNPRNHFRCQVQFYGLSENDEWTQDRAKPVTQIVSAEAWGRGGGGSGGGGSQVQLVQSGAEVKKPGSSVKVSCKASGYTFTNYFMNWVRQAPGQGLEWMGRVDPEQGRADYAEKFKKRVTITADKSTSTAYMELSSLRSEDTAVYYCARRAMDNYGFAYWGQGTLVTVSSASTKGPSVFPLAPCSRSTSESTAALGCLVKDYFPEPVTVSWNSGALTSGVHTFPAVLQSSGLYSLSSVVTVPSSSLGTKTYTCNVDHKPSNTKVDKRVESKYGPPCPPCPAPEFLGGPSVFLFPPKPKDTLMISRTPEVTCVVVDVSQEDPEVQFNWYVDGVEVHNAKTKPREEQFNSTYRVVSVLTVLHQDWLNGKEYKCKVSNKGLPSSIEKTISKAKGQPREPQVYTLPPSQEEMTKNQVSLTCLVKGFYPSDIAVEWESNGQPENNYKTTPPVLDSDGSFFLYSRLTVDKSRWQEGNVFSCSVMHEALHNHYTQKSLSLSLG
light 1: SYELTQPLSVSVALGQTARITCGGDNIGNKDVHWYQQKPGQAPVLVIYRDSNRPSGIPEGFSGSNSGNTATLTISRAQAGDEADYYCQVWDSIWVFGGGTKLTVLPDIQNPDPAVYQLRDSKSSDKSVCLFTDFDSQTQVSQSKDSDVYITDKCVLDMRSMDFKSNSAVAWSQKSDFACANAFQNSIIPEDTFFPSPESS
light 2: EIVLTQSPDFQSVTPKEKVTITCSANSALSYMYWYQQKPDQSPKLWVHGTSNLASGVPSRFSGSGSGTDFTLTINSLEAEDAATYYCHHWSNTQWTFGGGTKVEIKRTVAAPSVFIFPPSDEQLKSGTASVVCLLNNFYPREAKVQWKVDNALQSGNSQESVTEQDSKDSTYSLSSTLTLSKADYEKHKVYACEVTHQGLSSPVTKSFNRGEC
notes: IgG4 (S228P); also called WBP3248-U6T5.G25-1-uIgG4.SP; U6T5.G25.IgG4
